The target of the experiment is T1, GST-fused recombinant ARHGAP25 (human, UniProt P42331 1-645).
T1 construct: also called GST-ARHGAP25; GST-tagged recombinant ARHGAP25
T1 sequence (looked up): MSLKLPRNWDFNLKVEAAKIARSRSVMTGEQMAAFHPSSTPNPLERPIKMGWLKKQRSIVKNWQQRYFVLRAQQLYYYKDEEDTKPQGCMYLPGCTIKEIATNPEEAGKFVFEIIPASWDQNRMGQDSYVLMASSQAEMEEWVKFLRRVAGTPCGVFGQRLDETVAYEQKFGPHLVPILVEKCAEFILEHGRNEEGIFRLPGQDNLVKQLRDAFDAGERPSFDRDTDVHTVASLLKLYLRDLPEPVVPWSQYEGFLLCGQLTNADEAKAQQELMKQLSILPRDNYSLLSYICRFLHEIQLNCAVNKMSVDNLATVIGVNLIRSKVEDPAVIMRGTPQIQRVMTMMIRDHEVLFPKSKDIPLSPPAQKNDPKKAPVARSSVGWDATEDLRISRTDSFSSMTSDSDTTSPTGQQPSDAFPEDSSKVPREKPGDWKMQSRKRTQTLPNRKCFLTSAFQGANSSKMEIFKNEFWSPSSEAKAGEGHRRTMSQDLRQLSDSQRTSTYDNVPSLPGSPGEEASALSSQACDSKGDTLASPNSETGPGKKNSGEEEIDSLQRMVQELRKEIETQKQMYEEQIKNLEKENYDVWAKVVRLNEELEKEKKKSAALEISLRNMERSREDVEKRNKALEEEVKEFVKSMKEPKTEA
In words: affinity purification with mass spectrometry; GST-ARHGAP25 on glutathione agarose beads incubated with neutrophil lysate loaded beforehand with GTPγS or GDPβS (15 mM EDTA, 15 min, RT; stopped with 60 mM MgCl2), 45 min, 4 °C; LFQ values of the two loadings compared. The note with it: one partner purified.

B1: RAB27A (natural protein, UniProt P51159 1-221, looked up)
chain: MSDGDYDYLIKFLALGDSGVGKTSVLYQYTDGKFNSKFITTVGIDFREKRVVYRASGPDGATGRGQRIHLQLWDTAGQERFRSLTTAFFRDAMGFLLLFDLTNEQSFLNVRNWISQLQMHAYCENPDIVLCGNKSDLEDQRVVKEEEAIALAEKYGIPYFETSAANGTNISQAIEMLLDLIMKRMERCVDKSWIPEGVVRSNGHASTDQLSEEKEKGACGC
notes: RAB27A, small GTPase, endogenous in human neutrophilic granulocytes; In some pull-downs the lysate was loaded with GTPγS or GDPβS beforehand; source: endogenous, human neutrophilic granulocyte lysate
As to B1, the “log2ΔFC of LFQ values, GTPγS-loaded against GDPβS-loaded lysate” value (from here on “log2ΔFC of LFQ values, GTPγS-loaded”) is less than 0.2.

B2: ARF4 (natural protein, UniProt P18085 1-180, looked up)
chain: MGLTISSLFSRLFGKKQMRILMVGLDAAGKTTILYKLKLGEIVTTIPTIGFNVETVEYKNICFTVWDVGGQDRIRPLWKHYFQNTQGLIFVVDSNDRERIQEVADELQKMLLVDELRDAVLLLFANKQDLPNAMAISEMTDKLGLQSLRNRTWYVQATCATQGTGLYEGLDWLSNELSKR
notes: ARF4, small GTPase, endogenous in human neutrophilic granulocytes; In some pull-downs the lysate was loaded with GTPγS or GDPβS beforehand; source: endogenous, human neutrophilic granulocyte lysate
Regarding B2, the “log2ΔFC of LFQ values, GTPγS-loaded” value is less than 0.2.

B3: RHOG (natural protein)
chain: not shown
notes: RHOG, small GTPase of the Rac subfamily, endogenous in human neutrophilic granulocytes; In some pull-downs the lysate was loaded with GTPγS or GDPβS beforehand; source: endogenous, human neutrophilic granulocyte lysate
Consider B3, for which the “log2ΔFC of LFQ values, GTPγS-loaded” value stood at 0.589.

Source of the values: paper PMC11362597, “Neutrophil-specific interactome of ARHGAP25 reveals novel partners and regulatory insights” (Scientific Reports, 2024).
